Test results from patent publication US20250304658A1 (ICAHN SCHOOL OF MEDICINE AT MOUNT SINAI, published 2025).
Like-named read-outs stand apart in the source and are kept apart here.

T1: BK virus VP1 protein, genotype I (BK virus, UniProt P03088 1-362)
T1 sequence: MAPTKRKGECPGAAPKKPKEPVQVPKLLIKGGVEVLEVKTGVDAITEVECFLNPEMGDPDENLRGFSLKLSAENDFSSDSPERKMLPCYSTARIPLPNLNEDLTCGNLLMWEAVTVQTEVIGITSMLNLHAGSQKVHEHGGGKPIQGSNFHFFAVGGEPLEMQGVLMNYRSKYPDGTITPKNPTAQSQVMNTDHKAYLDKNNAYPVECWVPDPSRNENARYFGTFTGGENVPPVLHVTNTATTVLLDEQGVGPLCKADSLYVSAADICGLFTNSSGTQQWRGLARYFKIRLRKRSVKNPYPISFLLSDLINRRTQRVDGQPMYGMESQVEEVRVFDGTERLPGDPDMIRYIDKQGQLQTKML


What was measured:
Test in all cases: cell-based or functional assay
[1] = biological target: BK virus VP1 protein, genotype II (BK virus)
[2] = biological target: BK virus VP1 protein, genotype III (BK virus)
[3] = biological target: BK virus VP1 protein, genotype IV (BK virus)
[4] = biological target: BK virus VP1 protein, genotype II (BK virus); remark: listed apart in the source
[5] = biological target: BK virus VP1 protein, genotype III (BK virus); remark: listed apart in the source
[6] = biological target: BK virus VP1 protein, genotype IV (BK virus); remark: listed apart in the source
[7] = biological target: BK virus VP1 protein, genotype II (BK virus); remark: listed apart in the source
[8] = biological target: BK virus VP1 protein, genotype III (BK virus); remark: listed apart in the source
[9] = biological target: BK virus VP1 protein, genotype IV (BK virus); remark: listed apart in the source
[10] = biological target: T1, BK virus VP1 protein, genotype I
[11] = biological target: T1, BK virus VP1 protein, genotype I; remark: listed apart in the source
[12] = biological target: T1, BK virus VP1 protein, genotype I; remark: listed apart in the source

Binder	EC50, pseudovirus neutralization [1]	EC50, pseudovirus neutralization [2]	EC50, pseudovirus neutralization [3]	EC50, pseudovirus neutralization (mAb mixed with irrelevant isotype matched mAb M2) [4]	EC50, pseudovirus neutralization (mAb mixed with irrelevant isotype matched mAb M2) [5]	EC50, pseudovirus neutralization (mAb mixed with irrelevant isotype matched mAb M2) [6]	EC50, pseudovirus neutralization [7]	EC50, pseudovirus neutralization [8]	EC50, pseudovirus neutralization [9]	EC50, pseudovirus neutralization [10]	EC50, pseudovirus neutralization (mAb mixed with irrelevant isotype matched mAb M2) [11]	EC50, pseudovirus neutralization (mAb mixed with irrelevant isotype matched mAb M2) [12]	EC50, pseudovirus neutralization (mAb mixed with irrelevant isotype matched mAb M2) [7]	EC50, pseudovirus neutralization (mAb mixed with irrelevant isotype matched mAb M2) [8]	EC50, pseudovirus neutralization (mAb mixed with irrelevant isotype matched mAb M2) [9]
2B9 (antibody, V domains shown) VH: EVQLLESGGGLAQPGKSLRLSCAASGFTFSGFAMSWVRQAPGKGLEWVSGISGSGDITYYADSVKGRFTISRDNSKSTLYLQMNSLGAEDTAVYYCAKDPYNWNHGVYGMDVWGQGTTVTVSS VL: DIQMTQSPSSLSASVGDRVTITCRASQSISSYLNWYQQKPGKAPKFLIYGASSLQSGVPSRFSGSGSGTDFTLTISSLQPEDFAAYYCQQSFNAPLTFGGGTKVEIK	0.154 nM	0.0808 nM	0.148 nM	0.044 nM	0.0054 nM	0.0108 nM	0.0613 nM	0.0068 nM	0.0114 nM						
6E1 (antibody, V domains shown) VH: EVQLLESGGGLVQPGGSLRLSCAASGFTFSSFAMSWVRQAPGKGLEWVSGISGSGGSTYYADSVKGRFTISRDNSKNTLYLQMNSLRAEDTAIYYCAKDKRNWNYGIDSFDFWGQGTMVTVSS VL: DIQMTQSPSSLSASVGGRVTITCRTSQSISGYLNWYQQKAGKAPKLLIYATSNLQSGVPSRFTGSGSGTDFTLTISSLQPEDFAAYYCHQSHSPPFTFGPGTKVAFK	> 6.67 nM	> 6.67 nM	0.0095 nM	> 6.67 nM	> 6.67 nM	0.0496 nM				0.00295 nM	0.00067 nM	0.00078 nM	> 2 nM	> 2 nM	0.021 nM
2A10 (antibody, V domains shown) VH: EVQLVQSGAEVKKPGESLKISCKGSGYSFTYYWIGWVRQMPGKGLEWMGIIYPGDSDTRYSPSFQGQVTISADKSISTAYLQWSSLKASDTAMYYCTTHARNWNNVAYWGQGTLVTVSS VL: DIQMTQSPSSLSASVGDRLTITCRASQNINTFLNWYQQNPGKAPKVLIYAASSLESGVPSRFSGSGSGTDFTLTISSLQPEDFATYYCQQSSSTPWTFGQGTKVEIK	0.0094 nM	0.0024 nM	0.0015 nM	0.0557 nM	0.0064 nM	0.0059 nM				> 6.67 nM	> 6.67 nM	> 2 nM	0.0112 nM	0.000654 nM	0.00072 nM
2F11 (antibody, V domains shown) VH: EVQLVQSGAEVKKPGESLKISCKGSGYSFTNYWIGWVRQMPGKGLEWMGIIYPGDSDTRYSPSFQGQVTLSADKSISTAYLQWNSLKASDTAMYYCATHARSWNYVAYWGQGTLVTVAS VL: DIQMTQSPSSLSASVGDRVTITCRASQSVNNFLNWYQQKPGTAPKLLIYAASSLQGGVPSRFSGSGSGTDFTLTISSLQPEDFATYYCQQSNTTPWTFGQGTKVEIK	0.0838 nM	0.0105 nM	0.0061 nM							> 6.67 nM		> 2 nM	0.148 nM	0.0061 nM	0.00185 nM
